# Paper PMC10623103, “A case of hyperlysinemia identified by urine newborn screening” (JIMD Reports, 2023)
# Target: the molecule itself
# Assay: SEC; Superdex200 Increase on an AKTA FPLC after IMAC; uncut His-SUMOstar-LOR; elution compared with the expected tetrameric size and the aggregation peak
protein,measurement,value
"2-aminoadipic semialdehyde synthase (AASS) lysine 2-oxoglutarate reductase (LOR) domain, p.T371I variant, His-SUMOstar-LOR [residues 21-470] (domain or fragment, human, UniProt Q9UDR5 21-470, looked up, 2-aminoadipic semialdehyde synthase (AASS), LOR domain, residues 21-470, patient variant c.1112C>T (p.T371I); Purified as uncut SUMOstar-LOR; calculated MW of the His-SUMOstar-LOR monomer is 62.4 kD; PDB 8E8U is the wild-type LOR structure (cited); also called I371 variant; LOR variant; source: E. coli LOBSTR cells, purified (IMAC, size-exclusion chromatography on Superdex200 Increase); not …) HHKAVLAVRREDVNAWERRAPLAPKHIKGITNLGYKVLIQPSNRRAIHDKDYVKAGGILQEDISEACLILGVKRPPEEKLMSRKTYAFFSHTIKAQEANMGLLDEILKQEIRLIDYEKMVDHRGVRVVAFGQWAGVAGMINILHGMGLRLLALGHHTPFMHIGMAHNYRNSSQAVQAVRDAGYEISLGLMPKSIGPLTFVFTGTGNVSKGAQAIFNELPCEYVEPHELKEVSQTGDLRKVYGTVLSRHHHLVRKTDAVYDPAEYDKHPERYISRFNTDIAPYTTCLINGIYWEQNTPRLLTRQDAQSLLAPGKFSPAGVEGCPALPHKLVAICDISADTGGSIEFMTECTIIEHPFCMYDADQHIIHDSVEGSGILMCSIDNLPAQLPIEATECFGDMLYPYVEEMILSDATQPLESQNFSPVVRDAVITSNGTLPDKYKYIQTLRESRE",binding result,binds
